The values below come from patent US20260216242A1 (ALMAC DISCOVERY, published 2026).

For assay [1], the target named is T1, Human ALPL (leucine zipper) (human).
T1 construct: Whole entry: fused with a cysteine stabilised leucine zipper and His tag; also called hALPL
T1 chain: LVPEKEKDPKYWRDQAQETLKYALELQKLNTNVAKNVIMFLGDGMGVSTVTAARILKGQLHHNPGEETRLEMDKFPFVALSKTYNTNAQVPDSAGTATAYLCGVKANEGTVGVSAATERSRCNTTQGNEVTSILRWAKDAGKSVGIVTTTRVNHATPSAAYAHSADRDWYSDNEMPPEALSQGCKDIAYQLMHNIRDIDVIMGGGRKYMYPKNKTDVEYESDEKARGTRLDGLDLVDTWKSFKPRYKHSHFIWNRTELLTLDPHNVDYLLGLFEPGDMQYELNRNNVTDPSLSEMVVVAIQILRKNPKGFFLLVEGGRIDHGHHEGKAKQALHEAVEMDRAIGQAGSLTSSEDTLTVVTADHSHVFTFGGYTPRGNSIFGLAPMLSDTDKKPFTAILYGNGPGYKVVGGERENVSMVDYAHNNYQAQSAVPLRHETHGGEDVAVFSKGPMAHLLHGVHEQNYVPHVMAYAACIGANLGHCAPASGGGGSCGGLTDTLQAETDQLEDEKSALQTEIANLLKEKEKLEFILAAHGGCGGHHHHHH
The assay is described as follows: BLI, antigen immobilised. As to the method:
(§1) Binding kinetics were determined using the Biolayer Interferometry (BLI) Octet K2 system (Sartorius). […] All assays were conducted in PBS with a plate temperature of 25° C. Ka (M⁻¹s⁻¹), Kd (s⁻¹) and KD (nM) values were determined using Octet Data Analysis High Throughput software (ForteBio) for Biolayer Interferometry.

Assay [2] concerns the target T2, Human ALPP (leucine zipper) (human).
T2 construct: Whole entry: ALPP fused with a cysteine stabilised leucine zipper and His tag; also called hALPP
T2 chain: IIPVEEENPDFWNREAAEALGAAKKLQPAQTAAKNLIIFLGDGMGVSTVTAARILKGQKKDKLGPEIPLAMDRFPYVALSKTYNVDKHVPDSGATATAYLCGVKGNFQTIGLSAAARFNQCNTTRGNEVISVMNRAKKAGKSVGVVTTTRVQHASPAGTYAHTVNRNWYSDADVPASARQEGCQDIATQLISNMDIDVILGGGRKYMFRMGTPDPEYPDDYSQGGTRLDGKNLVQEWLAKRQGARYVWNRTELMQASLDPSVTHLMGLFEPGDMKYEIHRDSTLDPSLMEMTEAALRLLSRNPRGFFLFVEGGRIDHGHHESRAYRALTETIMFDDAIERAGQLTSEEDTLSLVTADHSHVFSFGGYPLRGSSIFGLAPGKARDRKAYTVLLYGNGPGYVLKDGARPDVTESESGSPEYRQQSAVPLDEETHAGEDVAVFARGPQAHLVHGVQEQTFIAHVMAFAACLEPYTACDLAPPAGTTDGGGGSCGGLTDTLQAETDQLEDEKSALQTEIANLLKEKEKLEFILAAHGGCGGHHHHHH
The assay is described as follows: BLI, antigen immobilised. As to the method:
as §1

A further assay has as its target T3, ALPI His homodimer (human, UniProt P09923 20-503).
T3 construct: Whole entry with His tag; used in ELISA and BLI; also called hALPI
T3 sequence: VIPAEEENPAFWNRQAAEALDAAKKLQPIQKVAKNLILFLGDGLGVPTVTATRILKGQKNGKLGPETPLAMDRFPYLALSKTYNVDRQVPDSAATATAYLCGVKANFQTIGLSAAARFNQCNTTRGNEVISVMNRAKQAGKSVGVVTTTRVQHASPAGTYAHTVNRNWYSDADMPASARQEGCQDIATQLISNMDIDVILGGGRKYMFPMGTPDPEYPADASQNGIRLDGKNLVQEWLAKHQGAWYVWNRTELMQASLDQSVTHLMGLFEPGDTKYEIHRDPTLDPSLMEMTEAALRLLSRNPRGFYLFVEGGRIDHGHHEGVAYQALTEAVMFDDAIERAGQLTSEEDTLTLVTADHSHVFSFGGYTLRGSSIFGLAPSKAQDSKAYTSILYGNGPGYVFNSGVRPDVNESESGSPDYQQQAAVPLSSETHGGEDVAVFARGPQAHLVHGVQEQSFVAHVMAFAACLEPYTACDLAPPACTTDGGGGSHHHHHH
As to the kind of experiment: ELISA, antigen coated. From the text:
ELISA was used to test the binding and specificity of the VHHs. […] Anti-Llama—HRP antibody was used for detection.

A further assay has as its target T4, human ALPL on CHO cells (human, UniProt P05186 18-501).
T4 construct: whole, on cells; also called CHO-ALPL
T4 sequence (looked up): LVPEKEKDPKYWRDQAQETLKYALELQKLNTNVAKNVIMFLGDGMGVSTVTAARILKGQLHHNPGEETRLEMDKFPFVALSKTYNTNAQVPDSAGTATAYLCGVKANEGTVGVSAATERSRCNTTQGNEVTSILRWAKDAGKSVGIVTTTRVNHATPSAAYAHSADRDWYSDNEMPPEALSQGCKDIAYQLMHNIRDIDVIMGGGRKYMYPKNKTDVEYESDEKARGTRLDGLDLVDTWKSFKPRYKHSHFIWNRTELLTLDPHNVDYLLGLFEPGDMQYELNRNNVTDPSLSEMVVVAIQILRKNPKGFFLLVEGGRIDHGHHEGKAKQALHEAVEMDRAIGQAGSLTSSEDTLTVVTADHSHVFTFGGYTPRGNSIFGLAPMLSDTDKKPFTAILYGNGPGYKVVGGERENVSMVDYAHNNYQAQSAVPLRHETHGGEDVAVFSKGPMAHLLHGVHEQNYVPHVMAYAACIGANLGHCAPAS
As to the kind of experiment: flow cytometry, CHO cells stably expressing human ALPL; PDC detected with FITC anti-human Ab. As to the method: Biparatopic VHH-hFc drug conjugates were assessed for human ALPP, ALPPL2, ALPI and ALPL cell-surface binding by flow cytometry. Binders were screened on CHO cells stably expressing human ALPP, ALPPL2, ALPI or ALPL.
Cell surface binding of test agents to hALPP isoforms was characterized in four CHO-ALPP isoform transfectant cell lines (CHO-ALPP, CHO-ALPPL2, CHO-ALPI and CHO-ALPL) and the resulting KDapp values determined. Adherent cells were detached from tissue culture flasks by incubating with 0.1% EDTA/PBS solution at 37° C. for […] or until cells detached easily. Cells were re-suspended in ice-cold PBS/2% FCS in 15 ml tubes and centrifuged at 1700 rpm for 5 mins at 4° C. Supernatant was removed and the cell pellet re-suspended in PBS/2% FCS. […] Cells were incubated with 100 μl of test agents at a range of concentrations, plus controls for 1 hr on ice. The sample plate was centrifuged at 1700 rpm for 5 mins at 4° C. The supernatant was removed, and a wash performed by re-suspending the cell pellets in 0.25 mL of ice-cold PBS/2% FCS using a multichannel pipette. Samples were again centrifuged at 1700 rpm for 5 min at 4° C. Supernatant was removed and two further washes performed as described. After the final wash and centrifugation step, excess liquid was removed by blotting the plate on tissue paper. Binding of VHH-hFc agents was determined by adding 100 μl of Fitc-anti-human Ab (ThermoFisher) and incubating for 30 mins on ice in the dark. Wash steps were performed as described previously. All cell pellets were finally re-suspended in 0.28 ml of ice-cold PBS/2% FCS and left on ice in the dark prior to analysis on a Merck-Millipore Guava EasyCyte HT or Thermo Fisher Attune N×T flow cytometer.

A value given as a limit tells only on which side of the number the result lay.

B1: C05 (VHH, not shown: small tags and cut ends)
VHH: QVQLVESGGGLVQAGGSLRLSCAASRRSFSEYAMGWFRQAPGKEREFVAAIGWSGVIEYADSVKGRFTISRDNAKDTVYLQMNSLKPEDTAVYYCAAGLGIRVVSQTPAYWGQGTQVTVSS
Consider B1, for which, in assay [1], the binding result was “no binding”. Further, in assay [2], the Kd is below 0.01 nM, the dissociation rate constant (koff) was below 1e-07 s⁻¹ and the on-rate constant (kon) was 394000 M⁻¹ s⁻¹. Further, in the assay with ALPI His homodimer, the binding result is “no binding (tested: 500 ng VHH)”.

B2: C06 (VHH, not shown: small tags and cut ends)
VHH: QVQLVESGGGLVQPGGSLRVSCAASGPSLSNYAMGWFRQAPGKEREFVAGISWGGGRTSYTDSVKGRFTISRDNAKNTVYLQMNNLKPEDTGVYYCAGRYGRGRNVEYEYDYWGQGTQVTVSS
As to B2, the binding result in assay [1] is on record as “no binding”. In assay [2], this molecule showed an equilibrium dissociation constant (Kd) below 0.01 nM, a koff below 1e-07 s⁻¹ and a kon of 368000 M⁻¹ s⁻¹. The binding result in the assay with ALPI His homodimer is “no binding (tested: 500 ng VHH)”.

B3: B11 (VHH, not shown: small tags and cut ends)
VHH: QVHLVESGGGSVQAGGSLRLSCAASGPSLSNYAMGWFRQAPGKEREFVAGISWGGGRTSYTDSVKGRFTISRDNAKNTVYLQMNNLKPEDTGVYYCAGRYGRGRNVEYEYDYWGQGTQVTVSS
On to B3, for which the binding result is listed as “no binding” in assay [1] and “no binding (tested: 500 ng VHH)” with ALPI His homodimer. The on-rate constant (kon) in assay [2] came out at 213000 M⁻¹ s⁻¹.

B4: D11 (VHH, not shown: small tags and cut ends)
VHH: QVQLVESGGGSVQAGGSLRLSCAASGPSLSNYAMGWFRQAPGKEREFVAGISWGGGRTSYTDSVKGRFTISRDNAKNTVYLQMNNLKPEDTGVYYCAGRYGRGRNVEYEYDYWGQGTMVTVSS
Regarding B4, the binding result in assay [1] is given as “no binding”. Also, in assay [2], the Kd is below 0.01 nM, the koff is below 1e-07 s⁻¹ and the kon was found to be 97700 M⁻¹ s⁻¹. Further, the binding result with ALPI His homodimer is on record as “no binding (tested: 500 ng VHH)”.

B5: D08 (VHH, not shown: small tags and cut ends)
VHH: QVHLVESGGGSVQAGGSLRLSCAASGPSLSNYAMGWFRQAPGKEREFVAGISWGGGRTSYTDSVKGRFTISRDNAKNTVYLQMNNLKPEDTGVYYCAGRYGRGRNVEYEYDYWGQGTKVTVSS
B5: the binding result in assay [1] is “no binding”. In assay [2], this molecule showed a Kd below 0.01 nM, a dissociation rate constant (koff) below 1e-07 s⁻¹ and a kon of 175000 M⁻¹ s⁻¹. For the same molecule, the binding result with ALPI His homodimer was “no binding (tested: 500 ng VHH)”.

B6: A08 (VHH, not shown: small tags and cut ends)
VHH: QVQLVESGGGLVQAGESLRLACAASGTIFSGNAVGWYRQAPEKQREWVSSITDYGDTDYAEAVKGRFTISRDNAKNTVYLQMNSLKPEDTAVYYCYVYQRGESEEYWGQGTKVTVSS
With B6, in assay [1], the binding result was “no binding”. In assay [2], this molecule returned a Kd of 0.03 nM, an off-rate (koff) of 1.2e-05 s⁻¹ and an on-rate (kon) of 429000 M⁻¹ s⁻¹. Moreover, in the assay with ALPI His homodimer, the binding result is given as “no binding (tested: 500 ng VHH)”.

B7: A06-E06 hFc-vcPAB-MMAE [G4S]3 (Fc fusion, DAR 4)
chain 1: QVHLVESGGGLVQAGGSLRLSCAASGRTFLSMGWFRQAPGKEREFVAAISWTGGSTGYADSVKGRFTISRESDKETMYLQMNSLKPEDTAVYYCAARGDVYYGGDDATRYKYWGQGTQVTVSSGGGGSGGGGSGGGGSEPKSSDKTHTCPPCPAPELLGGPCVFLFPPKPKDTLMISRTPEVTCVVVDVSHEDPEVKFNWYVDGVEVHNAKTKPREEQYNSTYRVVSVLTVLHQDWLNGKEYKCKVSNKALPAPIEKTISKAKGQPREPQVYTLPPSRDELTKNQVSLYCLVKGFYPSDIAVEWESNGQPENNYKTTPPVLDSDGSFFLYSKLTVDKSRWQQGNVFSCSVMHEALHNHYTQKSLCLSPGK
chain 2: QVHLVESGGGLVQAGGSLRLSCAASRRSFSEYAMGWFRQAPGKEREFVAAIGWSGVIEYADSVKGRFTISRDNAKDTVYLQMNSLKPEDTAVYYCAAGLGIRVVSQTPAYWGQGTQVTVSSGGGGSGGGGSGGGGSEPKSSDKTHTCPPCPAPELLGGPCVFLFPPKPKDTLMISRTPEVTCVVVDVSHEDPEVKFNWYVDGVEVHNAKTKPREEQYNSTYRVVSVLTVLHQDWLNGKEYKCKVSNKALPAPIEKTISKAKGQPREPQVYTLPPSRDELTKNQVSLTCLVKGFYPSDIAVEWESNGQPENNYKTTPPVLDSDGSFFLTSKLTVDKSRWQQGNVFSCSVMHEALHNHYTQKSLCLSPGK
modifications: MC-vc-PAB-MMAE on Cys 239 and Cys 442 (EU numbering)
notes: Biparatopic drug conjugate, DAR 4; also called #639
With B7, the binding result with human ALPL on CHO cells is given as “no binding (tested: 350 nM)”.
